# Assay results published in patent publication US20260078171A1.
# Legend:
# Assay in all cases: BLI (Octet), Fab, monovalent
# [1] = target: SARS-CoV-2 Omicron BA.1 spike S1 subunit (SARS-CoV-2)
# [2] = target: SARS-CoV-2 Beta RBD (SARS-CoV-2)
# [3] = target: SARS-CoV-2 Omicron BA.2 RBD (SARS-CoV-2)
binder,measurement,setting,value
"VYD222 Fab (Fab, V domains shown) VH: EVQLVESGGGLVKPGGSLRLSCAASGFTFGSYEMNWVRQAPGKGLEWVSSISEDGYSTYYPDSLKGRFTISRDSAKNSLYLQMNSLRADDTAVYYCARDFGGDTAWAGTGFTYWGQGTLVTVSS VL: QSVLTQPPSVSGAPGQRITISCTGSSSNIGAGYDVHWYQQLPGTAPKLLIYGSSSRNYGVPDRFSGSKSGTSASLAITGLQAEDEADYYCQSYDSDLGVLYTFGTGTKVTVL",Kd,[1],18.1 nM
same,Kd,[2],1.74 nM
same,Kd,[3],13.5 nM
